Measurements published in patent publication US8420776 (US Dept. of Health and Human Services, dated 2013).

Legend:
[1] = biological target: T1, N-terminal GFP fusion of gp78 residues 574-611 (GFP-574-611) (human, UniProt P42212 1-238 = GFP); experiment: co-immunoprecipitation with GFP fusion from HEK 293T cells
T1 construct: the vector encodes the enhanced variant; also called G2BD

[2] = biological target: N-terminal GFP fusion of gp78 residues 574-611 with the E2-m2 mutation (GFP-574-611E2-m2) (human, UniProt P42212 1-238 = GFP); experiment: anti-GFP immunoprecipitation from HEK 293T cells, immunoblot for endogenous Ube2G2
[3] = biological target: T2, yeast Ubc7p, in vitro translated and labelled with 35S-methionine (yeast, UniProt Q02159 1-165, 35S-methionine label); experiment: GST pull-down, E2 in vitro translated in wheat germ
T2 sequence (looked up): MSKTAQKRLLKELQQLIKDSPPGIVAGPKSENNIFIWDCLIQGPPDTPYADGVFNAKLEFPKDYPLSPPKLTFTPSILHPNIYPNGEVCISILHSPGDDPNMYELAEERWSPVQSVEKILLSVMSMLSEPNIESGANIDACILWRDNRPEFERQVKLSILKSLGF

[4] = biological target: T3, Ube2G2/MmUbc7, in vitro translated and labelled with 35S-methionine (human (100% identical to mouse MmUbc7), UniProt P60604 1-165, 35S-methionine label); experiment: GST pull-down, E2 translated in wheat germ and labelled with 35S-Met, equal counts
T3 construct: Translated in wheat germ or rabbit reticulocyte lysate; also called in vitro translated Ube2G2
T3 sequence: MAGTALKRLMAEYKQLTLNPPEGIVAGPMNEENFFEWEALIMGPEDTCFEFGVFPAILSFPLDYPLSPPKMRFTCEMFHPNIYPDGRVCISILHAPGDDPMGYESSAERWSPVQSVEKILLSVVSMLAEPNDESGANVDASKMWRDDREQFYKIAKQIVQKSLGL

[5] = biological target: UbcH5B, in vitro translated and labelled with 35S-methionine (human, UniProt P62837 1-147); experiment: GST pull-down, E2 in vitro translated in wheat germ
[6] = biological target: T4, lysine 48-linked (K48) tetra-ubiquitin (UniProt P0CG48 1-76, four ubiquitins joined by lysine 48 isopeptide links); experiment: GST pull-down, anti-ubiquitin immunoblot
T4 construct: the monomer is its first 76 residues

[7] = biological target: T2, yeast Ubc7p, in vitro translated and …; experiment: GST pull-down, E2 translated in wheat germ and labelled with 35S-Met, equal counts
[8] = biological target: N-terminal GFP fusion of gp78 amino acids 579-600 of SEQ ID NO:2 (human, UniProt P42212 1-238 = GFP); experiment: anti-Myc immunoprecipitation from cells co-transfected with GFP fusion and Myc-Ube2G2, anti-GFP immunoblot
[9] = biological target: T5, gp78 truncated after amino acid 595 of SEQ ID NO:2 (gp78595) (human, UniProt Q9UKV5 1-595); experiment: anti-Myc immunoprecipitation from co-transfected cells, anti-gp78 immunoblot
T5 construct: C-terminal truncation after the indicated amino acid

[10] = biological target: T6, gp78 truncated after residue 611 of SEQ ID NO:2 (gp78611) (human, UniProt Q9UKV5 1-611); experiment: as above
T6 construct: C-terminal truncation after the indicated amino acid

[11] = biological target: T7, gp78 truncated after amino acid 576 of SEQ ID NO:2 (gp78576) (human, UniProt Q9UKV5 1-576); experiment: as above
T7 construct: C-terminal truncation after the indicated amino acid

B1: endogenous Ube2G2 of HEK 293T cells (enzyme)
chain: AGTALKRLMAEYKQLTLNPPEGIVAGPMNEENFFEWEALIMGPEDTCFEFGVFPAILSFPLDYPLSPPKMRFTCEMFHPNIYPDGRVCISILHAPGDDPMGYESSAERWSPVQSVEKILLSVVSMLAEPNDESGANVDASKMWRDDREQFYKIAKQIVQKSLGL
notes: Endogenous protein in cell lysate, detected with rabbit antiserum to residues 148-165; also called endogenous E2
Q: What does the source list for B1?
A: binding result [1]: binds; binding result [2]: no binding

B2: GST fusion of the gp78 cytoplasmic tail beginning after the RING finger (residues 429-643 of SEQ ID NO:2) (other)
chain: IASWLPSFSVEVMHTTNILGITQASNSQLNAMAHQIQEMFPQVPYHLVLQDLQLTRSVEITTDNILEGRIQVPFPTQRSDSIRPALNSPVERPSSDQEEGETSAQTERVPLDLSPRLEETLDFGEVEVEPSEVEDFEARGSRFSKSADERQRMLVQRKDELLQQARKRFLNKSSEDDAASESFLPLEGASSDPVTLRRRMLAAAAERRLQKQQTS
notes: also called gp78CΔR; gp78CAR; not shown: GST carrier and the pGEX4T-1 linker (N-terminal)
Q: Does B2 bind [3]?
A: Result: no binding

Q: And the “amount bound (% of input)” value [4]?
A: Its value is ~10 % of input.

B3: GST fusion of the cytoplasmic domain of yeast Cue1p (Cue1p 24-203) (other, UniProt P38428 24-203, looked up)
chain: QSNQHPSAQRLSATGVNAHGRPQGSTQNALRRTGRVNGGHPVTTQMVETVQNLAPNLHPEQIRYSLENTGSVEETVERYLRGDEFSFPPGFEPSRAPMGANAAVDNNAAGGGEFNDPRKKNMICAENLLDKFHVDLNEDMSNLSFKDLDIEERKRLLVWQARKNLETKLQSDKDLQSLLT
notes: range 24-203; also called GST-Cue1p 24-203; not shown: glutathione S-transferase (GST) fusion partner, N-terminal (pGEX4T-1)
Q: Does B3 bind [5]?
A: Result: no binding

Q: Does B3 bind [6]?
A: Result: no binding (tested: 1 ug K48 tetra-ubiquitin)

Q: What about the “amount bound (% of input)” value [4] of the same binder?
A: Its value is ~10 % of input.

Q: And the “amount bound (% of input)” value [7]?
A: Its value is ~10 % of input.

B4: Myc-Ube2G2, co-expressed in HEK 293T cells (enzyme, not shown: small tags and cut ends)
chain: T3 sequence
notes: Plasmid described in Tiwari and Weissman, 2001; also called Myc-MmUbc7; myc-tagged MmUbc7/Ube2G2
Q: Does B4 bind [8]?
A: Result: binds

Q: Does B4 bind [9]?
A: Result: no binding

Q: Does B4 bind [10]?
A: Result: binds

Q: Does B4 bind [11]?
A: Result: no binding
